Measured values taken from patent US20050032681A1 (TEMPLE UNIV OF THE COMMONWEALTH SYSTEM OF HIGHER EDUCATION …, published 2005).
Where a chain is given by its changes, count along the chain named. Numbers in names are those of the source.

T1: human neutrophil elastase (human, UniProt P08246 30-247, limits assumed)
T1 sequence (looked up): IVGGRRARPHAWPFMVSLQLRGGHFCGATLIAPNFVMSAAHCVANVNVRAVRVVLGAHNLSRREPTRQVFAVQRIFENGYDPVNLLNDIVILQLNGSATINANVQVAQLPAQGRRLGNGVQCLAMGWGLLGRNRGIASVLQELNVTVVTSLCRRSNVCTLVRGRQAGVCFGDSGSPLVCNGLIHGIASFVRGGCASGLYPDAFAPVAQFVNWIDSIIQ

T2: Human Cathepsin G (human, UniProt P08311 21-244)
T2 sequence (looked up): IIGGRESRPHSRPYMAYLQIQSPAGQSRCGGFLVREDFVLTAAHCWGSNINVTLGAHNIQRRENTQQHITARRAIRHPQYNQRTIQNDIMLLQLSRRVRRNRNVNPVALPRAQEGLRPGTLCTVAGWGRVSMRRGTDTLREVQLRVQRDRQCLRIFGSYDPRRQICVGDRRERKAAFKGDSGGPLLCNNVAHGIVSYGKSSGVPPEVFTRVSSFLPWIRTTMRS

B1: Bb modified ATIII (on human ATIII.N135A background) (other)
chain: HGSPVDICTAKPRDIPMNPMCIYRSPEKKATEDEGSEQKIPEATNRRVWELSKANSRFATTFYQHLADSKNDNDNIFLSPLSISTAFAMTKLGACNDTLQQLMEVFKFDTISEKTSDQIHFFFAKLNCRLYRKAAKSSKLVSANRLFGDKSLTFNETYQDISELVYGAKLQPLDFKENAEQSRAAINKWVSNKTEGRITDVIPSEAINELTVLVLVNTIYFKGLWKSKFSPENTRKELFYKADGESCSASMMYQEGKFRYRRVAEGTQVLELPFKGDDITMVLILPKPEKSLAKVEKELTPEVLQEWLDELEEMMLVVHMPRFRIEDGFSLKEQLQDMGLVDLFSPEKSKLPGIVAEGRDDLYVSDAFHKAFLEVNEEGSEAAASTEGFFSGRSLNPNRVTFKANRPFLVFIREVPLNTIIFMGRVANPCVK
notes: Recombinant, baculovirus/Sf9, N135A background; also called AT.Bb; Bb mutant
B2: Bb.A modified ATIII (on human ATIII.N135A background) (other)
chain: B1 chain with F389E, F390A
notes: Recombinant, baculovirus/Sf9, N135A background; also called AT.Bb.A
B3: LEAI modified ATIII (on human ATIII.N135A background) (other)
chain: B1 chain with E387A, G388L, F389E, F390A, S391I
notes: substitutions derived against S T A V V I A G R with the numbering of footnote c; also called AT3.LEAI
B4: FF modified ATIII (on human ATIII.N135A background) (other)
chain: B1 chain with E387A, G388V, S391A
notes: Recombinant, baculovirus/Sf9, N135A background; also called AT.FF
B5: Bb.B modified ATIII (on human ATIII.N135A background) (other)
chain: B1 chain with F389E, F390G
notes: Recombinant, baculovirus/Sf9, N135A background; also called AT.Bb.B

Each binder was assayed against human α-thrombin (human, UniProt P00734 328-363; P00734 364-622) (assay: pseudo-first-order thrombin inhibition kinetics, residual activity with S-2238, 25 C, polybrene).
Description: (§1) Forty μL aliquots of ATIII samples at varying concentrations (450 nM, 300 nM, 150 nM) in PNE-PEG plus 50 μL polybrene (to neutralize any contaminating heparin) were preloaded into quadruplicate wells of a low-binding 96-well assay plate (Corning). The plate was maintained at 25° C., and 20 μL aliquots of 30 nM human thrombin or 15 nM human factor Xa were added to each of the four wells at successive 5 minute intervals. Reactions were quenched 5 minutes after addition of enzyme to the last of the wells by the adding 100 μL of 1.5 mM chromogenic substrate (S-2238 for thrombin; S-2765 for factor Xa). Residual enzyme activity was measured on a BioTek ELS11X kinetic plate reader controlled by a Macintosh SE with Deltasoft software. Initial rates of chromogenic substrate cleavage were monitored at 405 nm.

Going from B1 to B2, the “kapp (apparent second-order rate constant of association)” value (“kapp” for short) falls from 3600 M⁻¹ s⁻¹ to 500 M⁻¹ s⁻¹ (7.2-fold).

First: B3
Second: B4
The “kapp” value of the first is 2.6-fold higher: 3600 M⁻¹ s⁻¹ for the first, 1400 M⁻¹ s⁻¹ for the second.

Each binder was assayed against T1, human neutrophil elastase (assay: cell-based or functional assay).

First: B1
Second: B5
The “HNE resistance T1/2, min” value of the first is 2.8-fold lower: 15.8 min for the first, 44.8 min for the second.

Compared with B2, B3 is 9.8-fold lower in “HNE resistance T1/2, min” value: 27.4 min for the first, 2.8 min for the second.

B4 was tested, and the “HNE resistance T1/2, min” value was less than 2.5 min.

Each binder was assayed against T2, Human Cathepsin G (assay: cell-based or functional assay).

First: B1
Second: B5
The “Cathepsin G resistance T1/2, min” value of the first is 12-fold lower: 1.4 min for the first, 16.2 min for the second.

First: B2
Second: B3
The “Cathepsin G resistance T1/2, min” value of the first is higher: greater than 45 min for the first, 6.1 min for the second.

Each binder was assayed against T3, human factor Xa (human, UniProt P00742 41-179; P00742 235-488, limits assumed) (assay: pseudo-first-order factor Xa inhibition kinetics, residual activity with S-2765, 25 C, polybrene).
T3 construct: that the active enzyme has two chains is from general knowledge
Description: as §1

T3 sequence (P00742 41-179 limits assumed, chain 1 of 2): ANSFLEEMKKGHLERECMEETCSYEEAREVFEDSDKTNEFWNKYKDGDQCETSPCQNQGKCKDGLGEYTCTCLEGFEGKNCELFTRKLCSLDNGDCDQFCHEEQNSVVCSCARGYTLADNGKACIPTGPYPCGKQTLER
T3 sequence (P00742 235-488 limits assumed, chain 2 of 2): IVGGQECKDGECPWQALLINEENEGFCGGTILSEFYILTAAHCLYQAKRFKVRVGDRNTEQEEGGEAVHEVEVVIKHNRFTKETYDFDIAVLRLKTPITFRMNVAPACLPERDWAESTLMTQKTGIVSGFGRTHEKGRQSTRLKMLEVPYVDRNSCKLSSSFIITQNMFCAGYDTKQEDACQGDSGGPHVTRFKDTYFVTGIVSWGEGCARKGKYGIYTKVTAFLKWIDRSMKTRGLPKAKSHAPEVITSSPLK

Compared with B1, B5 is 6.4-fold lower in “kapp” value: 4500 M⁻¹ s⁻¹ for the first, 700 M⁻¹ s⁻¹ for the second.

B2 and B3 are within 1.5-fold of each other in “kapp” value: 6200 M⁻¹ s⁻¹ for the first, 7000 M⁻¹ s⁻¹ for the second.

B4 was tested, and the “kapp” value was 3000 M⁻¹ s⁻¹.
